Assay results taken from patent US20090311283A1.
Where two headings read alike, the source gives them in different places.

Key:
[1] = target: HLA-A*0301 (human); assay: competitive inhibition of 125I-labelled probe peptide binding to purified HLA; relative to standard peptide
[2] = target: HLA-A*3101 (human); assay: competition with 125I-labelled probe peptide for purified HLA-A*3101, gel filtration; ratio to standard peptide 941.12
[3] = target: HLA-A*1101 (human)
[4] = target: HLA-A*3301 (human)
[5] = target: HLA-A*6801 (human); assay: competition with 125I-labelled probe peptide for purified HLA-A*6801, gel filtration; ratio to standard peptide 941.12
[6] = target: HLA-A*3101 (human); assay: competition with 125I probe peptide on purified HLA-A*3101; relative to standard peptide 941.12
[7] = target: HLA-A*6801 (human); assay: competition with 125I probe peptide on purified HLA-A*6801; relative to standard peptide 941.12
[8] = target: HLA-A*0301 (human); assay: competition with 125I probe peptide on purified HLA-A*0301; relative to standard peptide 941.12
[9] = target: HLA-A*0301 (human); assay: inhibition of binding of a 125I-labelled probe peptide to purified HLA-A*0301, gel filtration; relative to the standard peptide
[10] = target: HLA-A*3101 (human); assay: competitive inhibition of 125I-labelled probe peptide binding to purified HLA; relative to standard peptide
[11] = target: HLA-A*3301 (human); assay: as above
[12] = target: HLA-A*0301 (human); assay: competition with 125I-labelled probe peptide for purified HLA, gel filtration
[13] = target: HLA-A*1101 (human); assay: as above
[14] = target: HLA-B*5101 (Human); assay: as above
[15] = target: HLA-B*5401 (Human); assay: as above
[16] = target: HLA-B*3501 (Human); assay: as above
[17] = remark: other sources report otherwise

B1: HBV POL 569 peptide … (peptide)
peptide: HLNPNKTKR
modifications: not checked
binding affinity ratio (IC50 of standard peptide / IC50 of test peptide) [1]: 0.0025

B2: HBV POL 98 peptide PLTVNEKR (peptide)
peptide: PLTVNEKR
modifications: not checked
binding affinity ratio (IC50 of standard peptide / IC50 of test peptide) [2]: -0.0009 | binding affinity ratio (IC50 of standard peptide / IC50 of test peptide) [3]: -0.0002 | binding affinity ratio (IC50 of standard peptide / IC50 of test peptide) [4]: -0.0009 | binding affinity ratio (IC50 of standard peptide / IC50 of test peptide) [5]: 0.0001

B3: HBV POL 20 peptide PLEEELPR (peptide)
peptide: PLEEELPR
modifications: not checked
binding affinity ratio (IC50 of standard peptide / IC50 of test peptide) [2]: -0.0009 | binding affinity ratio (IC50 of standard peptide / IC50 of test peptide) [3]: -0.0002 | binding affinity ratio (IC50 of standard peptide / IC50 of test peptide) [4]: -0.0009 | binding affinity ratio (IC50 of standard peptide / IC50 of test peptide) [5]: 0.0001

B4: HBV POL 771 peptide … (peptide)
peptide: SALNPADDPSR
modifications: not checked
binding affinity ratio (IC50 standard peptide / IC50 test peptide) [3]: -0.0003 | binding affinity ratio (IC50 standard peptide / IC50 test peptide) [4]: -0.0023 | binding affinity ratio (IC50 standard peptide / IC50 test peptide) [6]: -0.0012 | binding affinity ratio (IC50 standard peptide / IC50 test peptide) [7]: 0.0003 | binding affinity ratio (IC50 standard peptide / IC50 test peptide) [8]: -0.0004 | binding affinity ratio (IC50 of standard peptide / IC50 of test peptide) [9]: -0.0004

B5: HBV X 64 peptide … (peptide)
peptide: SSAGPCALRF
modifications: not checked
binding affinity ratio (IC50 of standard peptide / IC50 of test peptide) [9]: -0.0003

B6: HBV NUC 29 peptide GMDIDPYK (peptide)
peptide: GMDIDPYK
modifications: not checked
binding affinity ratio (IC50 of standard peptide / IC50 of test peptide) [10]: -0.0009 | binding affinity ratio (IC50 of standard peptide / IC50 of test peptide) [1]: 0.0006 | binding affinity ratio (IC50 of standard peptide / IC50 of test peptide) [11]: -0.0009

B7: HBV POL 2 peptide PLSYQHFR (peptide)
peptide: PLSYQHFR
modifications: not checked
binding affinity ratio (IC50 of standard peptide / IC50 of test peptide) [2]: -0.0009 | binding affinity ratio (IC50 of standard peptide / IC50 of test peptide) [4]: -0.0009 | binding affinity ratio (IC50 of standard peptide / IC50 of test peptide) [5]: 0.0001

B8: HBV X 65 peptide … (peptide)
peptide: SAGPCALRF
modifications: not checked
binding affinity ratio (IC50 of standard peptide / IC50 of test peptide) [9]: -0.0003

B9: HBV POL 2 peptide … (peptide)
peptide: PLSYQHFRK
modifications: not checked
binding affinity ratio (IC50 of standard peptide / IC50 of test peptide) [2]: 0.0006 | binding affinity ratio (IC50 of standard peptide / IC50 of test peptide) [3]: 0.0031 | binding affinity ratio (IC50 of standard peptide / IC50 of test peptide) [5]: 0.0002

B10: HBV POL 98 peptide … (peptide)
peptide: PLTVNEKRR
modifications: not checked
binding affinity ratio (IC50 of standard peptide / IC50 of test peptide) [3]: 0.0005 | binding affinity ratio (IC50 of standard peptide / IC50 of test peptide) [4]: 0.0027 | binding affinity ratio (IC50 of standard peptide / IC50 of test peptide) [5]: 0.0002

B11: … (HBV NUC 118) (peptide)
peptide: YLVSFGVWIR
modifications: not checked
binding affinity ratio (IC50 of standard peptide / IC50 of test peptide) [12]: 0.0005 | binding affinity ratio (IC50 of standard peptide / IC50 of test peptide) [13]: 0.0002

B12: HBV NUC 44 peptide … (peptide)
peptide: SPEHCSPHHTA
modifications: not checked
binding affinity ratio (IC50 of standard peptide / IC50 of test peptide) [14]: 0.0001 | binding affinity ratio (IC50 of standard peptide / IC50 of test peptide) [15]: 0.0011 | binding affinity ratio (IC50 of standard peptide / IC50 of test peptide) [16]: 0.0001

B13: HBV POL 520 peptide SAICSVVR (peptide)
peptide: SAICSVVR
modifications: not checked
binding affinity ratio (IC50 standard peptide / IC50 test peptide) [3, 17]: 0.0071 | binding affinity ratio (IC50 standard peptide / IC50 test peptide) [4, 17]: 0.0081 | binding affinity ratio (IC50 standard peptide / IC50 test peptide) [6, 17]: 0.028 | binding affinity ratio (IC50 standard peptide / IC50 test peptide) [7, 17]: 0.069 | binding affinity ratio (IC50 standard peptide / IC50 test peptide) [8, 17]: -0.0002 | binding affinity ratio (IC50 of standard peptide / IC50 of test peptide) [9, 17]: -0.0002

B14: HBV NUC 188 peptide RTPSPRRR (peptide)
peptide: RTPSPRRR
modifications: not checked
binding affinity ratio (IC50 standard peptide / IC50 test peptide) [3]: -0.0002 | binding affinity ratio (IC50 standard peptide / IC50 test peptide) [4]: 0.0014 | binding affinity ratio (IC50 standard peptide / IC50 test peptide) [6]: 0.0033 | binding affinity ratio (IC50 standard peptide / IC50 test peptide) [7]: 0.0002 | binding affinity ratio (IC50 standard peptide / IC50 test peptide) [8]: -0.0002 | binding affinity ratio (IC50 of standard peptide / IC50 of test peptide) [9]: -0.0002
